The text below walks through data of patent US20030068630A1 (MYRIAD GENETICS, published 2003).

The target in this assay is T1, Mineralocorticoid receptor (MCR) amino acids 603-985, Gal4 DNA-binding-domain bait fusion (Saccharomyces cerevisiae, UniProt P04386 1-147; P08235 603-984).
T1 construct: range 1-147;range 603-985; Bait made as a C-terminal fusion to Gal4 DBD in vector pGBTQ; also called MCR AA 603-985
As to the kind of experiment: yeast two-hybrid (Gal4, beta-galactosidase read-out) with 4 uM aldosterone; bait MCR AA 603-985. As to the method: DNA was prepared from each clone, transformed by electroporation into E. coli strain KC8 (Clontech KC8 electrocompetent cells, cat. # C2023-1), and the cells were selected on ampicillin-containing plates in the absence of either tryptophane (selection for the bait plasmid) or leucine (selection for the brain library plasmid). DNA for both plasmids was prepared and sequenced by di-deoxynucleotide chain termination method. The identity of the bait cDNA insert was confirmed and the cDNA insert from the brain library plasmid was identified using BLAST program against public nucleotides and protein databases. Plasmids from the brain library (preys) were then individually transformed into yeast cells together with a plasmid driving the synthesis of lamin fused to the Gal4 DNA binding domain. Clones that gave a positive signal after β-galactosidase assay were considered false-positives and discarded. Plasmids for the remaining clones were transformed into yeast cells together with plasmid for the original bait. Clones that gave a positive signal after ,galactosidase assay were considered true positives.
A yeast two-hybrid system as described in Example 1 was performed in the presence of aldosterone. […]

B1: PN19395 amino acids 120-397, Gal4 activation-domain prey fusion (other, Saccharomyces cerevisiae, not shown: small tags and cut ends)
chain: ANFNQSGNIADSSLSFTFTNSSNGPNLITTQTNSQALSQPIASSNVHDNFMNNEITASKIDDGNNSKPLSPGWTDQTAYNAFGITTGMFNTTTMDDVYNYLFDDEDTPPNPKKELMPGAGLLPIPTPNPLTTLGVSLSSLGAIPAAALDPNIATLGEIPQPPLMGNVDPSKIDEIRRTVYVGNLNSQTTTADQLLEFFKQVGEVKFVRMAGDETQPTRFAFVEFADQNSVPRALAFNGVMFGDRPLKINHSNNAIVKPPEMTPQAAAKELEEVMKRVREAQSFISAAIEPESGKSNERKGGRSRSHTRSKSRSSSKSHSRRKRSQSKHRSRSHNRSRSRQKDRRRSKSPHKKRSKSRERRKSRSRSHSRDKRKDTREKIKEKERVKEKDREK
notes: range 768-881; Novel 624 amino acid protein; Clone from a human brain cDNA library in pACT2
B1: the binding result is recorded as “binds”.
